The values below come from PMC4131897 (Biochemistry, 2014).

Series [1] concerns the target T1, BjPutA (proline utilization A) (Bradyrhizobium diazoefficiens, UniProt Q89E26).
T1 sequence (Q89E26 1-999): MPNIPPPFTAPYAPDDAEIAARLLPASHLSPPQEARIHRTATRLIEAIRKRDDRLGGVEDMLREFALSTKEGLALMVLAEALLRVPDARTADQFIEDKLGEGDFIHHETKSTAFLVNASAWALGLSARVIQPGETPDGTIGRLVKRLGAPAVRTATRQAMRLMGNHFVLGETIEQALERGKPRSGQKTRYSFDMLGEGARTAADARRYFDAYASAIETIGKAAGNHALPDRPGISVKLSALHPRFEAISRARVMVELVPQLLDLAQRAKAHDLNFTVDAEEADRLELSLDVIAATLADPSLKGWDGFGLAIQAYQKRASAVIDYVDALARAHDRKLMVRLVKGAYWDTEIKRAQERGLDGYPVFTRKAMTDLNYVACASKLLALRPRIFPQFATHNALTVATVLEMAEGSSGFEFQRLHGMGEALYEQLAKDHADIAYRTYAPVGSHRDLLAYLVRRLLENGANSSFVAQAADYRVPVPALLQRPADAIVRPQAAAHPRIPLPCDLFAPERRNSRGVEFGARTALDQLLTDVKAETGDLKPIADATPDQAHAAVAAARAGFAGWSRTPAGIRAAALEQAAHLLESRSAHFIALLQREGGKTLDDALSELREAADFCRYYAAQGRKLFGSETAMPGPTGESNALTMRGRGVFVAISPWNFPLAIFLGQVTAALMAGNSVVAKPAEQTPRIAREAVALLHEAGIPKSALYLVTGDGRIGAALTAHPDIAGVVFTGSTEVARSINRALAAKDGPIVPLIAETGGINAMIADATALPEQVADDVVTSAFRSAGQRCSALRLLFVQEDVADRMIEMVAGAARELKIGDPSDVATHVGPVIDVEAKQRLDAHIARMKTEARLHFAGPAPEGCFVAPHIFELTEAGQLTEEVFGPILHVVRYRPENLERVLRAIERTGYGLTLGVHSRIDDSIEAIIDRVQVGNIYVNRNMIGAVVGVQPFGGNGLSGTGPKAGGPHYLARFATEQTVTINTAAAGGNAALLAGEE
Put plainly: coupled PRODH-P5CDH assay, NADH formation at […] nm, substrate inhibition fit. The format is biochemical. To be noted: 0.1 mM CoQ1, 0.2 mM NAD+, 50 mM potassium phosphate pH 7.5, 25 mM NaCl.

Substrate in series [2]: O=C(O)[C@@H]1CCCN1
Put plainly: purified protein. As to conditions: 250 μM CoQ1, 50 mM potassium phosphate pH 7.5, 23 °C.

Substrate in series [3]: COC1=C(OC)C(=O)C(CC=C(C)C)=C(C)C1=O
As to the kind of experiment: purified protein. To be noted: 150 mM proline, 50 mM potassium phosphate pH 7.5, 23 °C.

As to `O=C(O)[C@@H]1CCCN1` [proline], the Ki in series [1] worked out at 24 ± 12 mM.

B1: BjPutA (proline utilization A) (Bradyrhizobium diazoefficiens USDA 110) (protein)
chain: MPNIPPPFTAPYAPDDAEIAARLLPASHLSPPQEARIHRTATRLIEAIRKRDDRLGGVEDMLREFALSTKEGLALMVLAEALLRVPDARTADQFIEDKLGEGDFIHHETKSTAFLVNASAWALGLSARVIQPGETPDGTIGRLVKRLGAPAVRTATRQAMRLMGNHFVLGETIEQALERGKPRSGQKTRYSFDMLGEGARTAADARRYFDAYASAIETIGKAAGNHALPDRPGISVKLSALHPRFEAISRARVMVELVPQLLDLAQRAKAHDLNFTVDAEEADRLELSLDVIAATLADPSLKGWDGFGLAIQAYQKRASAVIDYVDALARAHDRKLMVRLVKGAYWDTEIKRAQERGLDGYPVFTRKAMTDLNYVACASKLLALRPRIFPQFATHNALTVATVLEMAEGSSGFEFQRLHGMGEALYEQLAKDHADIAYRTYAPVGSHRDLLAYLVRRLLENGANSSFVAQAADYRVPVPALLQRPADAIVRPQAAAHPRIPLPCDLFAPERRNSRGVEFGARTALDQLLTDVKAETGDLKPIADATPDQAHAAVAAARAGFAGWSRTPAGIRAAALEQAAHLLESRSAHFIALLQREGGKTLDDALSELREAADFCRYYAAQGRKLFGSETAMPGPTGESNALTMRGRGVFVAISPWNFPLAIFLGQVTAALMAGNSVVAKPAEQTPRIAREAVALLHEAGIPKSALYLVTGDGRIGAALTAHPDIAGVVFTGSTEVARSINRALAAKDGPIVPLIAETGGINAMIADATALPEQVADDVVTSAFRSAGQRCSALRLLFVQEDVADRMIEMVAGAARELKIGDPSDVATHVGPVIDVEAKQRLDAHIARMKTEARLHFAGPAPEGCFVAPHIFELTEAGQLTEEVFGPILHVVRYRPENLERVLRAIERTGYGLTLGVHSRIDDSIEAIIDRVQVGNIYVNRNMIGAVVGVQPFGGNGLSGTGPKAGGPHYLARFATEQTVTINTAAAGGNAALLAGEE
B1: in the series “purified protein [2]”, the Km turned out to be 43 ± 5 mM, the kcat worked out at 3.1 ± 0.1 s⁻¹ and the catalytic efficiency (kcat/Km) turned out to be 72 ± 8.6 M⁻¹ s⁻¹. Also, in “purified protein [3]”, the Km is 0.105 ± 0.006 mM, the kcat was determined as 2.9 ± 0.1 s⁻¹ and the kcat/Km was determined as 27600 ± 1710 M⁻¹ s⁻¹.

The Km is the substrate concentration at which the rate is half of its maximum. What is called kcat is the number of substrate molecules converted per active site and unit of time at saturation. What is called kcat/Km is the second-order rate constant that governs catalysis at low substrate concentration.
